According to patent US8927207B2, “miRNAs as therapeutic targets in cancer” (Research Foundation of State University of New York, priority 2008, dated 2015):
Where two headings read alike, the source gives them in different places. Each block holds one molecule with its values, some of them ahead of it.

Columns and labels:
[1] = test system: conserved p53-binding promoter of miR-192; experiment: luciferase reporter assay of p53-binding promoter of miR-192; type: cell-based, human; settings: HCT (wt-p53) cells, 5 μmol/L for 24 hours
Excerpt: Luciferase reporter assay was used to determine the transcriptional activation of conserved p53-binding promoter of miR-192. pGL3-Basic promoterless luciferase reporter plasmid (Promega) was used in this study. Double-stranded DNA oligonucleotides of conserved p53-binding sequence of miR-192 was synthesized and annealed and cloned upstream of firefly luciferase in the pGL3-Basic plasmid (miR-192-pGL3). […] Control vector and miR-192-pGL3 vector were transfected into both HCT-116 (wt-p53) and HCT-116 (null-p53) cells. To further induce p53 expression, transfected HCT-116 (wt-p53) and HCT-116 (null-p53) cells were also treated with 5 μmol/L 5-fluorouracil for 24 hours. The promoter activity of each construct was quantified by dual luciferase assay (Promega) 24 hours after transfection.

HCT-116(wt-p53) cells = experiment: WST-1 chemosensitivity to TDX after transfection; type: cell-based; settings: Homo sapiens, HCT-116, 72 h
Procedure: HCT-116 (wt-p53) cells were plated in 96-well plates at 1×10^3 cells/well in triplicate and were transfected with miR-215 precursor, non-specific control miRNA, or siRNA against TS or DHFR in 100 μl of medium. […] To measure viable cells, 10 μl of WST-1 (Roche Applied Science) was added to each well. After 2 hours incubation, absorbance was measured at 450 and 630 nm respectively (n=3). Non-specific control miRNA alone was used as a negative control, and siRNAs incubation with TDX or MTX were used as the positive controls.

miR-192 = experiment: real time qRT-PCR of endogenous mature miR-192 after MTX treatment; type: cell-based, human
Procedure: Thereafter, the expression of endogenous mature miR-192 was analyzed by real time qRT-PCT analysis using an internal control RNU6B as an internal standard for normalization. The cDNA synthesis was carried out with the High Capacity cDNA synthesis kit (Applied Biosystems) using 10 ng of total RNA as template. The miRNA sequence-specific RT-PCR primers for miR-192 and endogenous control RNU6B were purchased from Ambion. Real-time quantitative reverse transcription-PCR (qRT-PCR) analysis was carried out using Applied Biosystems 7500 Real-Time PCR System. The PCR master mix containing TaqMan 2× Universal PCR Master Mix (No Amperase UNG), 10× TaqMan assay and RT products in 20 μl volume were processed as follows: 95° C. for 10 minutes, and then 95° C. for 15 seconds, 60° C. for 60 seconds for up to 40 cycles (n=3). Signal was collected at the endpoint of every cycle. The gene expression ΔCT values of miRNAs from each sample were calculated by normalizing with internal control RNU6B and relative quantitation values were plotted.

U-2 OS cells [2] = experiment: WST-1 chemosensitivity to MTX after transfection; type: cell-based; settings: for IC50: Homo sapiens, U2OS, 72 h
HCT-116 (wt-p53) cells = experiment: WST-1 cell proliferation after miR-215 transfection; type: cell-based, human; settings: day 5, vs non-specific miRNA control
Procedure: (§1) miR-215 inhibits cell proliferation of HCT-116(wt-p53) and U-2 OS cells.
(§2) Cell proliferation assays were performed on the transduced cells. HCT-116 (wt-p53), HCT-116 (null-p53), U-2 OS, and MG63 cells were plated in 96-well plates in triplicate at 1 10^3 cells/well after transfection with miR-215 precursor or non-specific control miRNA. Cells were cultured for 24, 48, 72, 96 h. The absorbance at 450 and 630 nm was measured after incubation with 10 μl of WST-1 for 2 h.

U-2 OS cells [3] = experiment: as above; type: cell-based; settings: day 5, vs non-specific miRNA control
Procedure: as §1, §2

U-2 OS cells [4] = experiment: cell cycle analysis by flow cytometry; type: cell-based
Procedure: miR-215 induces G2-arrest in HCT-116 (wt-p53) and U-2 OS cells. To investigate the mechanism by which miR-215 suppressed cell proliferation in HCT-116 (wt-p53) and U-2 OS cells, the impact of miR-215 on cell cycle control was analyzed by flow cytometry at 36 h after transfection. HCT-116 (wt-p53), HCT-116 (null-p53), U-2 OS and MG63 cells were transfected with miR-215 precursor and the non-specific control miRNA described as above. At 36 h after transfection, cells were harvested and resuspended at 0.5-1 10^5 cells/ml in modified Krishan buffer containing 0.1% sodium citrate and 0.3% NP-40 and kept at 4° C. Before analysis by flow cytometry, cells were treated with 0.02 mg/ml RNase H and stained with 0.05 mg/ml propidium iodide (Sigma).

p53 = experiment: western immunoblot of p53 in HCT-116 (wt-p53) and U-2 OS cells; type: cell-based; settings: both HCT-116 (wt-p53) and U-2 OS cells, 48 h after transfection
Excerpt: (§3) miR-215 increases the expression of cell cycle control genes p53 and p21. p53 and p21, a downstream target of the p53 pathway of growth control, are reported to block cells at G2 checkpoint mainly through inhibiting activity of Cdc2, the cyclin-dependent kinase that normally drives cells into mitosis, which is the ultimate target of pathways that mediate rapid arrest in G2 in response to DNA damage. To further analyze the mechanism of cell proliferation inhibition by miR-215, we transfected miR-215 precursor into HCT-116 (wt-p53) and U-2 OS cells, and evaluated the levels of cell cycle control genes p53 and p21 by western immunoblot analysis.

p21 = experiment: western immunoblot of p21 in HCT-116 (wt-p53) and U-2 OS cells; type: cell-based; settings: both HCT-116 (wt-p53) and U-2 OS cells, 48 h after transfection
Excerpt: as §3

TS = experiment: western immunoblot of TS protein after transfection; type: cell-based; settings: 48 hours after transfection
Procedure: At 48 h after transfection with miR-215, miR-192 precursors or non-specific control miRNA, the cells were scraped and lysed in RIPA buffer (Sigma). Equal amounts of proteins were resolved by SDS-PAGE on 12% gels by the method of Laemmli, and transferred to polyvinylidene fluoride membranes (BIO-RAD Laboratories). The membranes were then blocked by 5% nonfat milk in TBS-T (Tris-buffered saline and 0.5% Tween-20) at room temperature for 1 h. The primary antibodies used for the analysis included mouse anti-TS mAb (1:400, Millipore), mouse anti-DHFR mAb (1:250, BD Bioscience), mouse anti-p53 mAb (1:1000, DO-1), mouse anti-p21 mAb (1:1000, F-5), and mouse anti-α-tubulin mAb (1:1000, TU-02) purchased from Santa Cruz Biotechnology. Horseradish peroxidase—conjugated antibodies against mouse (1:1000, Santa Cruz Biotechnology) were used as the secondary antibodies. Protein bands were visualized with a chemiluminescence detection system using the Super Signal substrate (BIO-RAD).
At 48 hours after transfection, proteins were extracted from miR-215-transfected cells and from control cells and changes in TS or DHFR protein levels were determined by western immunoblot analysis (FIG. 14).

TS mRNA = experiment: real time qRT-PCR of TS mRNA; type: cell-based; settings: U-2 OS cells
Procedure: (§6) Expression levels of TS or DHFR mRNA were analyzed using real time qRT-PCR analysis (FIG. 15).

DHFR mRNA = experiment: real time qRT-PCR of DHFR mRNA; type: cell-based; settings: U-2 OS cells
Procedure: as §6

3′UTR of DHFR = experiment: pMIR-REPORT dual-luciferase reporter assay; type: cell-based, human; settings: HCT-116 (wt-p53), 30 hours after transfection, compared to the vector alone
Excerpt: (§4) To confirm whether miR-215 directly targets TS or DHFR, plasmids were constructed containing the fragments of the 3′UTR of TS or DHFR in the downstream region of firefly luciferase. The pMIR-REPORT Luciferase miRNA Expression Reporter Vector (Ambion) was used to determine the targets of miR-215. Double stranded DNA oligonucleotides containing the miR-215 binding sequence (wt-miR-215) or mismatch sequence (mut-miR-215) in 3′UTR of TS or DHFR mRNA and the HindIII and SpeI restriction site overhangs were synthesized (IDT, Coralville, Iowa) and annealed and cloned downstream of firefly luciferase in the pMIR-REPORT plasmid. The sequences of these synthesized oligonucleotides are provided below. The 3′UTR of TS includes two miR-215 binding sites: one is located at 84-104 bp, one is located at 216-236 bp.
(§5) The constructs were transiently transfected into HCT-116 (wt-p53) cells alone (control) or together with miR-215 precursor. […] Thirty hours after transfection, cells were lysated and luciferase activity was measured by the dual-luciferase reporter assay system (Promega, Madison, Wis.) according to the instructions. […]

3′UTR of TS = experiment: pMIR-REPORT dual-luciferase reporter assay; type: cell-based, human; settings: HCT-116 (wt-p53), 30 hours after transfection, compared to the vector alone
Excerpt: as §4, §5

- activation of luciferase expression from miR-192 promoter p53 binding site [1]: further enhanced
Molecule: O=c1[nH]cc(F)c(=O)[nH]1 [5-fluorouracil]

- IC50 (HCT-116(wt-p53) cells; HCT-116(wt-p53) cells transfected with miR-215, 72 hours): 98.7 nM
- IC50 (HCT-116(wt-p53) cells; negative control (non-specific control miRNA), 72 hours): 18.6 nM
- IC50 (HCT-116(wt-p53) cells; positive control (siRNA against TS), 72 hours): 8.5 nM
Molecule: Cc1nc2ccc(CN(C)c3ccc(C(=O)N[C@@H](CCC(=O)O)C(=O)O)s3)cc2c(=O)[nH]1 [TDX, Ralitrexed]

Molecule: CN(Cc1cnc2nc(N)nc(N)c2n1)c1ccc(C(=O)N[C@@H](CCC(=O)O)C(=O)O)cc1 [MTX, methotrexate]
- expression of endogenous mature miR-192 (miR-192; HCT-116 (null-p53)): did not cause any change
- expression of endogenous mature miR-192 (miR-192; HT-29 (mut-p53)): did not cause any change
- expression of endogenous mature miR-192 (miR-192; cells with p53 induction (wt-p53), RNU6B normalized): significant increase
- IC50 (U-2 OS cells [2]; read-out: IC50 of MTX, negative control (non-specific control miRNA), 72 hours): 49.7 nM
- IC50 (U-2 OS cells [2]; read-out: IC50 of MTX, positive control (siRNA against DHFR), 72 hours): 37.3 nM
- cells still alive (U-2 OS cells [2]; miR-215 transduced U-2 OS cells at 200 nM of MTX): 83.6%

B1: miR-215: microRNA miR-215 (SEQ ID NO:9), transfected as precursor, 72 bps hairpin stem loop processed by DICER (nucleic acid)
chain: AUCAUUCAGAAAUGGUAUACAGGAAAAUGACCUAUGAAUUGACAGACAAUAUAGCUGAGUUUGUCUGUCAUUUCUUUAGGCCAAUAUUCUGUAUGACUGUGCUACUUCAA
modifications: delivered as precursor hairpin, further chemistry not given here
- reduction in cell proliferation (OD) (HCT-116 (wt-p53) cells): approximately 40%
- reduction in cell proliferation (OD) (U-2 OS cells [3]): ~58%
- G2/S ratio (U-2 OS cells [4]; 36 h after transfection (control 0.35)): 0.72
- proportion of cells in the G2-phase (U-2 OS cells [4]; 36 h after transfection (control 18.50%)): 29.69%
- proportion of cells in the S-phase (U-2 OS cells [4]; 36 h after transfection (control 52.08%)): 41.24%
- increase of G2/S ratio (U-2 OS cells [4]; vs control): > 2 fold
- p53 protein level (p53): significant increase
- p21 protein level (p21): significant increase
- TS protein levels (TS): clearly decreases
- TS mRNA expression (TS mRNA): no reduction
- DHFR mRNA expression (DHFR mRNA): no reduction
- luciferase activity, DHFR 3′UTR construct (3′UTR of DHFR): significant decrease
- luciferase activity, TS 3′UTR construct (3′UTR of TS): significant decrease
